From the supplement of paper PMC9112550, “Optimization of the antimicrobial peptide Bac7 by deep mutational scanning” (BMC Biology, 2022)

The sequences below were run on Escherichia coli TOP10 (assay: shrunken log2 fold change of peptide-encoding DNA abundance (4.5 h post-induction vs induction); higher = less antimicrobial activity (less host growth inhibition)). Details: time post-induction: 4.5 h; library: site-saturation at positions 5, 18, 19, 20.
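Note: peptides expressed intracellularly from a pBAD plasmid library in pooled LB shake-flask culture, induced with 0.3% L-arabinose, DNA abundance read by NGS, three biological replicates, DESeq2 with apeglm shrinkage.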

Going from RRIRFRPPRLPRPRPRPNLEPRP to RRIRSRPPRLPRPRPRPFTHPRP, the “shrunken log2 fold change” value rises from -0.257 to -0.0568.

Going from RRIRERPPRLPRPRPRPKMAPRP to RRIRFRPPRLPRPRPRPEQDPRP, the “shrunken log2 fold change” value falls from 2.39 to 1.57.

First: RRIRARPPRLPRPRPRPINLPRP
Second: RRIRGRPPRLPRPRPRPMGPPRP
The “shrunken log2 fold change” value of the first is lower: -0.376 for the first, 0.846 for the second.

Going from RRIRARPPRLPRPRPRPVPLPRP to RRIRKRPPRLPRPRPRPAAAPRP, the “shrunken log2 fold change” value rises from 0.263 to 0.896.

Going from RRIRMRPPRLPRPRPRPEGKPRP to RRIRGRPPRLPRPRPRPCMTPRP, the “shrunken log2 fold change” value falls from 3.36 to 2.89.

First: RRIRFRPPRLPRPRPRPRGFPRP
Second: RRIRARPPRLPRPRPRPCQQPRP
The “shrunken log2 fold change” value of the first is higher: 0.27 for the first, -0.00897 for the second.

Going from RRIRDRPPRLPRPRPRPSRGPRP to RRIRVRPPRLPRPRPRPYARPRP, the “shrunken log2 fold change” value falls from 0.386 to -0.243.

RRIRHRPPRLPRPRPRPSNVPRP and RRIRRRPPRLPRPRPRPHWEPRP are within 0.2 log units of each other in “shrunken log2 fold change” value: -0.00144 for the first, 0.127 for the second.

Going from RRIRPRPPRLPRPRPRPTWGPRP to RRIRYRPPRLPRPRPRPMIQPRP, the “shrunken log2 fold change” value falls from 0.593 to -0.0921.

Compared with RRIRLRPPRLPRPRPRPLNTPRP, RRIRIRPPRLPRPRPRPLRSPRP is higher in “shrunken log2 fold change” value: -0.454 for the first, 0.299 for the second.

First: RRIRCRPPRLPRPRPRPRVFPRP
Second: RRIRMRPPRLPRPRPRPNADPRP
The “shrunken log2 fold change” value of the first is lower: 0.0449 for the first, 2.51 for the second.

First: RRIRTRPPRLPRPRPRPDLRPRP
Second: RRIRNRPPRLPRPRPRPWMIPRP
The “shrunken log2 fold change” value of the first is higher: -0.0122 for the first, -0.252 for the second.

Compared with RRIRERPPRLPRPRPRPSHKPRP, RRIRVRPPRLPRPRPRPEEPPRP is higher in “shrunken log2 fold change” value: -0.437 for the first, 0.0911 for the second.

Going from RRIRVRPPRLPRPRPRPAAKPRP to RRIRMRPPRLPRPRPRPNMIPRP, the “shrunken log2 fold change” value falls from 0.348 to -0.489.

Going from RRIRYRPPRLPRPRPRPFYCPRP to RRIRQRPPRLPRPRPRPLSTPRP, the “shrunken log2 fold change” value rises from -1.27 to 0.175.

RRIRQRPPRLPRPRPRPPKPPRP and RRIRQRPPRLPRPRPRPTIMPRP are within 0.2 log units of each other in “shrunken log2 fold change” value: -0.0724 for the first, -0.127 for the second.

First: RRIRVRPPRLPRPRPRPVDWPRP
Second: RRIRLRPPRLPRPRPRPQKWPRP
The “shrunken log2 fold change” value of the first is lower: 0.403 for the first, 2.37 for the second.

Compared with RRIRVRPPRLPRPRPRPNTVPRP, RRIRHRPPRLPRPRPRPHPFPRP is lower in “shrunken log2 fold change” value: -0.0689 for the first, -0.3 for the second.

RRIRWRPPRLPRPRPRPGYYPRP and RRIRNRPPRLPRPRPRPESCPRP are within 0.2 log units of each other in “shrunken log2 fold change” value: -0.125 for the first, 0.073 for the second.

RRIRYRPPRLPRPRPRPVEKPRP and RRIRLRPPRLPRPRPRPHRNPRP are within 0.2 log units of each other in “shrunken log2 fold change” value: -0.129 for the first, -0.319 for the second.

Compared with RRIRGRPPRLPRPRPRPDGTPRP, RRIRTRPPRLPRPRPRPKLLPRP is lower in “shrunken log2 fold change” value: 1.02 for the first, 0.272 for the second.

RRIRWRPPRLPRPRPRPDGPPRP and RRIRFRPPRLPRPRPRPSPSPRP are within 0.2 log units of each other in “shrunken log2 fold change” value: 0.199 for the first, 0.12 for the second.

First: RRIRERPPRLPRPRPRPGSRPRP
Second: RRIRQRPPRLPRPRPRPNITPRP
The “shrunken log2 fold change” value of the first is higher: -0.0607 for the first, -0.495 for the second.

RRIRRRPPRLPRPRPRPSVDPRP and RRIRDRPPRLPRPRPRPETEPRP are within 0.2 log units of each other in “shrunken log2 fold change” value: 0.168 for the first, -0.0111 for the second.

RRIRIRPPRLPRPRPRPEMGPRP and RRIRYRPPRLPRPRPRPGVEPRP are within 0.2 log units of each other in “shrunken log2 fold change” value: -0.105 for the first, 0.0346 for the second.

First: RRIRVRPPRLPRPRPRPSELPRP
Second: RRIRYRPPRLPRPRPRPTGNPRP
The “shrunken log2 fold change” value of the first is higher: -0.157 for the first, -0.858 for the second.

RRIRGRPPRLPRPRPRPGHWPRP and RRIRRRPPRLPRPRPRPVKRPRP are within 0.2 log units of each other in “shrunken log2 fold change” value: 0.387 for the first, 0.457 for the second.

First: RRIRSRPPRLPRPRPRPGARPRP
Second: RRIRTRPPRLPRPRPRPKYPPRP
The “shrunken log2 fold change” value of the first is higher: 0.492 for the first, -0.252 for the second.

Compared with RRIRFRPPRLPRPRPRPRRDPRP, RRIRGRPPRLPRPRPRPGKVPRP is lower in “shrunken log2 fold change” value: 0.798 for the first, 0.598 for the second.

Going from RRIRLRPPRLPRPRPRPFEPPRP to RRIRGRPPRLPRPRPRPSTEPRP, the “shrunken log2 fold change” value rises from 0.00273 to 1.14.

RRIRHRPPRLPRPRPRPNALPRP and RRIRQRPPRLPRPRPRPDICPRP are within 0.2 log units of each other in “shrunken log2 fold change” value: 0.0224 for the first, -0.0144 for the second.

RRIRGRPPRLPRPRPRPDYMPRP and RRIRHRPPRLPRPRPRPGTVPRP are within 0.2 log units of each other in “shrunken log2 fold change” value: -0.0973 for the first, -0.139 for the second.

RRIRNRPPRLPRPRPRPTPWPRP and RRIRDRPPRLPRPRPRPDCTPRP are within 0.2 log units of each other in “shrunken log2 fold change” value: 0.161 for the first, 0.185 for the second.

RRIRWRPPRLPRPRPRPITDPRP and RRIRRRPPRLPRPRPRPKYLPRP are within 0.2 log units of each other in “shrunken log2 fold change” value: -0.15 for the first, -0.042 for the second.

RRIRWRPPRLPRPRPRPPIRPRP and RRIRYRPPRLPRPRPRPSGQPRP are within 0.2 log units of each other in “shrunken log2 fold change” value: -0.0117 for the first, -0.000925 for the second.

RRIRWRPPRLPRPRPRPHPHPRP and RRIRTRPPRLPRPRPRPDIIPRP are within 0.2 log units of each other in “shrunken log2 fold change” value: -0.0616 for the first, -0.232 for the second.

First: RRIRPRPPRLPRPRPRPGLRPRP
Second: RRIRKRPPRLPRPRPRPNSSPRP
The “shrunken log2 fold change” value of the first is higher: 3.24 for the first, -0.0248 for the second.

RRIRKRPPRLPRPRPRPVCKPRP was tested, and the “shrunken log2 fold change” value was 0.0228.
